In this assay the target is Rac1BD (MiniBAR70-208), recombinant (human) (UniProt O15063). The assay can be described thus: SEC-MALS.

Data on 1 substance can be found in publication doi:10.1101/2023.07.24.550339.

As to “Rac1Q61L, recombinant (from UniProt P63000 1-192) (natural protein)”, the stoichiometry N (Rac1 per Rac1BD homodimer) was 2.
